This assay has as its target T1, human transferrin receptor-Fc tag standard (human, UniProt P02786 89-760, limits assumed).
T1 construct: Coated on a 96 well plate at 2 ug/ml; also called hTfR; not shown: Fc tag
The assay is described as follows: ELISA on plate-bound hTfR-Fc with anti-His detection; Kd calculated from an expected saturation point, since the curve was not saturated.

T1 sequence (P02786 89-760 limits assumed): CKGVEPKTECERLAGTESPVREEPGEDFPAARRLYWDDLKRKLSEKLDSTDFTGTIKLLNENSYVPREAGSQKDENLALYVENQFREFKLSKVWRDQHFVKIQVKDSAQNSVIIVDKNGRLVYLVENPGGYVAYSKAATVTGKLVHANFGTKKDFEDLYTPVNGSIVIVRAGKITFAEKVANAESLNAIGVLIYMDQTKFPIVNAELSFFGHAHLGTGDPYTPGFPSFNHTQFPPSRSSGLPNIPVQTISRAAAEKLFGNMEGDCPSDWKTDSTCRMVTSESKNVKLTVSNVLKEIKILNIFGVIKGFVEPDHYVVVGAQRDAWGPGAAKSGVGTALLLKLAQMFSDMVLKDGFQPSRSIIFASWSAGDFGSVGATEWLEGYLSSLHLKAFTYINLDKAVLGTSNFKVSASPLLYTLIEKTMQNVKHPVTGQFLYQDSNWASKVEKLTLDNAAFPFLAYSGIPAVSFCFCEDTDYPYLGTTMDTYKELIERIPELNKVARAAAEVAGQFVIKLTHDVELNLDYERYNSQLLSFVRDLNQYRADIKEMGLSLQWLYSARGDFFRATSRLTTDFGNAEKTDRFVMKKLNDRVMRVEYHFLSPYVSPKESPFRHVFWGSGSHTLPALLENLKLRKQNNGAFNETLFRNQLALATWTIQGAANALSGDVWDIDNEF

B1: huHF_Mutant2-dual (designed binder)
chain: MTTASTSQVRQNYHAASEAAINAQINLELYASYVYLSMSYYFDRDDVALKNFAKYFLHQSHEEREHAEKLMKLQNQRGGRIALADIQKPDCDDGGSYGSLYAFDIWESGLNAMECALHLEKNVNQSLLALHALATAKNDPHLCDFIETHYLNEQVKAIKELGDHVTNLRKMGAPESGLAEYLFDKHTLGDSDNESMPSFITLASLSTWEGYFDF
notes: Spherical nanoparticle of 24 self-assembled monomers, made in E. coli; not shown: A hexa-His tag is present (Ni-NTA purification, anti-His detection)
Turning to B1, the equilibrium dissociation constant (Kd) is ~4.4 µM.

These data come from patent EP4335867A1 (Cellemedy Co., Ltd, dated 2024).
